# Measurements taken from article doi:10.1101/2021.09.30.462564 (bioRxiv, 2021).
# B1: N-acetylglucosamine kinase (NagK) from Plesiomonas shigelloides (enzyme)
# chain: MYYGFDIGGTKIEFGAFDADLVRVARERVATPTESYAAFLDAIVTLVNNADAEFGVKGTVGIGIPGIADVETGKLLTSNIPAAMGHTLQRDLEERLQRPVKIENDANCFALSEAWDEDLRGEPSVLGLILGTGVGGGLIFNGKVHSGRANIAGEIGHTRLPYDALKLLGMENAPIFPCGCKNSGCIDNYLSGRGFEQLYDHYFSEKLSAPEIIAHYEQGERRAVQHVERFMELLAICLANIFTCLDPHVVVLGGGLSNFELIYQELPKRLPAHLLHVAKLPKIIKARHGDAGGVRGAAFLNL
# notes: N-acetylglucosamine kinase NagK of Plesiomonas shigelloides, codon optimised gene in pOPINS3C; His-SUMO tagged construct (pOPINS3C) used for crystallisation; no cleavage of the tags is described; also called PsNagK; P. shigelloides NagK; source: E. coli BL21 (DE3), purified (HisTrap, Superdex 200 size exclusion); not shown: polyhistidine, N-terminal, kept; SUMO, N-terminal, kept
# Biological target: the molecule itself
# Assay: crystal structure; His-SUMO tagged P. shigelloides NagK crystallised by the microbatch method; X-ray data at 100 K
protein,measurement,value
B1,binding result,binds
